From IntAct's records for PubMed 17012600

B1: Protein NDR1 (Arabidopsis thaliana (Mouse-ear cress)), O48915 (parent)
chain: MNNQNEDTEGGRNCCTCCLSFIFTAGLTSLFLWLSLRADKPKCSIQNFFIPALGKDPNSRDNTTLNFMVRCDNPNKDKGIYYDDVHLNFSTINTTKINSSALVLVGNYTVPKFYQGHKKKAKKWGQVKPLNNQTVLRAVLPNGSAVFRLDLKTQVRFKIVFWKTKRYGVEVGADVEVNGDGVKAQKKGIKMKKSDSSFPLRSSFPISVLMNLLVFFAIR
partner: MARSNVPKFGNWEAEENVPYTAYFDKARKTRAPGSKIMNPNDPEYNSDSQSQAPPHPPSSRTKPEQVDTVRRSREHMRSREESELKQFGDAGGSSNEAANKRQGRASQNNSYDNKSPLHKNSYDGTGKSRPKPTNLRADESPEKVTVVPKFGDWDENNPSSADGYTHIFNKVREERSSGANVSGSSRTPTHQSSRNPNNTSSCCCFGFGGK

Variants of: B1
Details: with rin4_arath RIN4, Q8GYN5

Q: With N5A as the variant, how does the “effect of a mutation on the interaction” value read?
A: disrupting interaction

Q: Q4A was tested. Which “effect of a mutation on the interaction” value did it give?
A: disrupting interaction
